Measurements: patent US20230279128A1 (SYNTHEKINE, published 2023)

T1: extracellular domain of hIFNgR2 (human, UniProt P38484 28-247)
T1 construct: also called hIFNgR2 ECD; hIFNgR2-ECD
T1 sequence: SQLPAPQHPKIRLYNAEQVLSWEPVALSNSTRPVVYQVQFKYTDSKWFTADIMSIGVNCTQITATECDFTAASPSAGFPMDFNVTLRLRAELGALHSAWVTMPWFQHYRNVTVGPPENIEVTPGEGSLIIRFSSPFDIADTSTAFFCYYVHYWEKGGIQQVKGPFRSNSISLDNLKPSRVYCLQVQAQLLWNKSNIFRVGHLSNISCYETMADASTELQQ

T2: extracellular domain of mIFNgR2 (mouse)
T2 construct: also called mIFNgR2 ECD; mouse IFNgR2 extracellular domain
T2 chain: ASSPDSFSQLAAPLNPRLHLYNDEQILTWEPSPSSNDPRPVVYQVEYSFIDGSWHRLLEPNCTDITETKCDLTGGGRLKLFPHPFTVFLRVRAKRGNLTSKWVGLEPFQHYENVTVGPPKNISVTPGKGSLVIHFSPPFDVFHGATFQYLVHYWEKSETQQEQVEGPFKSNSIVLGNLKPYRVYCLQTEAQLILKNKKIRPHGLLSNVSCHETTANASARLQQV

B1: DR931 (VHH)
VHH: QVQLVESGGGLVQAGGSLLLSCAASGRTFSTYAMGWFRQAPGKERMFVAAISVNGGSTYYADSVTGRFTISRDNAKNTMYLQMNNLKPGDTAVYYCAARRPYPGSDFLTWASYDYRGQGTLVTVSS
B2: DR933 (VHH)
VHH: QVQLVESGGGLVQPGDSLRLSCVASGGTISSLAMGWFRQAPGKEREFVAAISWSGRSTYYVDSVKGRFTISTDNAKNTVYLQMNSLKPEDTAVYYCVAGEDGHSEYDYWGQGTQVTVSS
B3: DR932 (VHH)
VHH: QVQLVESGGGLVQAGGFLRLSCAASGRTFSYTTIGWFRQAPGKEREFVAVISAGGGSRDYADALKGRFTISRDNAKKMVYLQMNNLKPEDTAVYYCAVRRNTDTYTTTGDYDYWGQGTQVTVSS
B4: DR935 (VHH)
VHH: QVQLVESGGGLVQAGGSLRLSCAASGRAFSTYALGWFRQAPGKEREFIAAISRGGGSTDYADSVKGRFTISRDNAKSTVYLQMNSLKPEDTAVYYCAARSYSSSYYYSQYEYDYWGQGTQVTVSS
B5: DR934 (VHH)
VHH: QVQLVESGGGLVQAGGSLRLSCAASGRSFANYAMGWFRQAPGKERETVAAISRGGGSTWYADSVKGRFTISKDNAKNTVYLQMNSLKPEDTAIYYCAARSYSGSYTYSFGEYDYWGQGTQVTVSS
B6: DR930 (VHH)
VHH: EVQLVESGGGLVQAGGSLRLSCTVSGRTFSSYAVAWFRQAPGNVRELAAALSRGGGSAYYTDSVKGRFTISRDNAKNTVYLQMNSLKPEDTAVYYCAARNYDGTYYQENQYNYWGQGTQVTVSS

The binders below were run against T1, extracellular domain of hIFNgR2 (assay: flow cytometry).

binding result | Binder
binds | B1
binds | B2
binds | B3
binds | B4
binds | B5
binds | B6

Target: T2, extracellular domain of mIFNgR2
Test: flow cytometry, cross-reactivity

binding result | Binder
binds | B1
binds | B2
binds | B3
binds | B4
binds | B5
binds | B6
